In general, Ki refers to the dissociation constant of the complex between target and ligand, obtained from inhibition or displacement. Read a low Ki as tighter binding. For orientation: EC50 means the midpoint of the concentration-response curve. Lower therefore signals a more potent agent. For orientation: pKi means the negative decadic logarithm of the Ki, by convention in mol/L. High values mean a low Ki, low ones a high Ki.

15 molecules from patent publication US20260265334A1, “STAPLED PEPTIDES” (THE FLOREY INSTITUTE OF NEUROSCIENCE AND MENTAL HEALTH, priority 2023, published 2026) can be followed below.

For experiment [1], the target named is T1, RXFP4 (Homo sapiens, UniProt Q8TDU9). Put plainly: Eu-R3/I5 competition binding assay in CHO-K1-RXFP4 cells. Also on record: expressed in transfected cells. On the procedure: An Eu-R3/15 competition binding assay in CHO-K1-RXFP4 cells was carried out.
(§1) Competition binding curves for each peptide were performed in triplicate and each experiment was performed independently at least three times. Fluorescent measurements were carried out at excitation of 340 nm and emission of 614 nm on a BMG POLARstar plate reader (BMG Labtech, Melbourne, Australia). Pooled data were presented as mean±S.E.M. of specific binding and are fitted using a one-site binding curve in GraphPad Prism version 8 (GraphPad Inc., San Diego, USA). Statistical analyses were conducted using one-way analysis of variance with uncorrected Fisher's least significant difference (LSD) post-hoc analysis in GraphPad Prism version 9.
(§2) An additional analogue of INSL5 was utilised as a control, INSL5-A13, having an A chain (SEQ ID NO: 9) and a B chain (SEQ ID NO: 10) with a first disulfide bond between Cys 1 of the A chain and Cys 7 of the B chain, and a second disulfide bond between Cys 14 of the A chain and Cys 19 of the B chain:
(§3) Competition binding and cAMP activity assay were conducted by a procedure analogous to that described above for Example 3. The results are shown in FIG. 24 (RXFP3) and FIG. 25 (RXFP4).

In experiment [2] the target is T1, RXFP4. Briefly: Inhibition of forskolin-induced cAMP activity in CHO-K1-RXFP4 cells (pCRE β-galactosidase reporter). Also on record: expressed in transfected cells. In kind it is cell-based. On the procedure:
For agonist assays, cells were stimulated with forskolin (5 μM for RXFP3, 1 μM for RXFP4)±increasing concentrations of each peptide for 6 hours. Data were expressed as the % forskolin activity, whereby 100% was defined as forskolin alone and 0% as maximum agonist stimulation (1 μM Analogue 2 for RXFP3 and 1 μM Analogue 13 for RXFP4). Data were analysed and plotted using GraphPad Prism 9 and are expressed as the mean±SEM of the pooled data. Statistical analysis was conducted using one-way ANOVA with Uncorrected Fisher's LSD post-hoc analysis using GraphPad Prism 9.
as §2, §3

The target of experiment [3] is T2, RXFP3 (Homo sapiens, UniProt Q9NSD7).
T2 construct: expressed in transfected cells
T2 sequence (Q9NSD7 1-469): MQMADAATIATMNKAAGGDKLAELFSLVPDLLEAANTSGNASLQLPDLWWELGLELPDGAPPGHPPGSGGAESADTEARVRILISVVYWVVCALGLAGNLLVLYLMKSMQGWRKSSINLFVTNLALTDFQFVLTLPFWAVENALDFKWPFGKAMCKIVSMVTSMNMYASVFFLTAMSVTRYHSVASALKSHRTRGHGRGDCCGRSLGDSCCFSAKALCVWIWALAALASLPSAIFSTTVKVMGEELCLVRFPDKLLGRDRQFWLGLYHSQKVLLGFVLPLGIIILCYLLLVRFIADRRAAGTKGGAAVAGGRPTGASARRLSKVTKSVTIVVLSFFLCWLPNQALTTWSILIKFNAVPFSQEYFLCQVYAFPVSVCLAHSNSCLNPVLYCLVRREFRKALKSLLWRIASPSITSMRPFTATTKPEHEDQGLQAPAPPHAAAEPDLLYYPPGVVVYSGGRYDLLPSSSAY
Put plainly: Eu-H3B1-22R competition binding assay in CHO-K1-RXFP3 cells. As to conditions: 5 nM Eu-H3B1-22R, mean ± SEM (n), Table 2. On the procedure: An Eu-H3B1-22R competition binding assay was conducted in CHO-K1-RXFP3 cells.
as §1, §3

Experiment [4] concerns the target T2, RXFP3. Put plainly: Inhibition of forskolin-induced cAMP activity in CHO-K1-RXFP3 cells (pCRE β-galactosidase reporter). The note with it: 5 μM forskolin, 6 hours, Table 2. Type of experiment: cell-based. On the procedure:
Since RXFP3 is coupled to Gi/o proteins, peptides were tested for their ability to activate RXFP3 as measured via their ability to inhibit forskolin-induced cAMP activity in CHO-K1-RXFP3 or CHO-K1-RXFP4 cells transfected with a pCRE (cAMP Response Element) β-galactosidase reporter plasmid (as described in Belgi, A et al., Structure and function relationship of murine insulin-like peptide 5 (INSL5): free C-terminus is essential for RXFP4 receptor binding and activation. Biochemistry 2011, 50 (39), 8352-61; and Haugaard-Kedstrom, L. M et al., Synthesis and pharmacological characterization of a europium-labelled single-chain antagonist for binding studies of the relaxin-3 receptor RXFP3. Amino Acids 2015, 47 (6), 1267-71). For agonist assays, cells were stimulated with forskolin (5 μM for RXFP3, 1 μM for RXFP4)±increasing concentrations of each peptide for 6 hours. Data were expressed as the % forskolin activity, whereby 100% was defined as forskolin alone and 0% as maximum agonist stimulation (1 μM Analogue 2 for RXFP3 and 1 μM Analogue 13 for RXFP4). Data were analysed and plotted using GraphPad Prism 9 and are expressed as the mean±SEM of the pooled data. Statistical analysis was conducted using one-way ANOVA with Uncorrected Fisher's LSD post-hoc analysis using GraphPad Prism 9.
as §3

For experiment [5], the target named is T3, RXFP4 (relaxin family peptide receptor 4) on CHO-K1-RXFP4 cells (UniProt Q8TDU9 1-374, limits assumed). Put plainly: cell-based or functional assay.
Experiment [6] has as its target T3, RXFP4 (relaxin family peptide receptor …). Put plainly: competition with Eu-R3/I5 on CHO-K1-RXFP4 cells.
Experiment [7] deals with T4, LgBiT-RXFP4 (HEK-LgBiT-RXFP4 crude membrane fractions) (UniProt Q8TDU9 1-374).
T4 construct: Assayed as crude membrane fractions (25 µg protein) of HEK cells; not shown: LgBiT tag of NanoBiT
Put plainly: NanoBiT competition with 2 nM SmBiT-R3/I5 on HEK-LgBiT-RXFP4 membranes.

The target in experiment [8] is T3, RXFP4 (relaxin family peptide receptor …). Briefly: competition with Eu-R3/I5 on CHO-K1-RXFP4 cells. The source holds these as a separate data set.
Experiment [9] addresses T5, RXFP3 (relaxin family peptide receptor 3) on CHO-K1-RXFP3 cells (UniProt Q9NSD7 1-469, limits assumed).
T5 construct: whole, on cells; also called GPCR135
T5 sequence (looked up): T2 sequence (Q9NSD7 1-469)
Briefly: competition with Eu-H3B1-22R on CHO-K1-RXFP3 cells.

Like-named read-outs stand apart in the source and are kept apart here. Bridge positions count the residues as written; N and C are the ends. Square brackets hold non-standard residues; d marks the D form. Ends that are not written are not given here. Peptide text beside a SMILES is read from it. I, II: the chains in the order shown. αMeF = C[C@](N)(Cc1ccccc1)C(=O)O; S5 = C=CCCC[C@](C)(N)C(=O)O; αMeC = C[C@](N)(CS)C(=O)O A value given as a limit tells only on which side of the number the result lay.

T4 sequence (Q8TDU9 whole entry): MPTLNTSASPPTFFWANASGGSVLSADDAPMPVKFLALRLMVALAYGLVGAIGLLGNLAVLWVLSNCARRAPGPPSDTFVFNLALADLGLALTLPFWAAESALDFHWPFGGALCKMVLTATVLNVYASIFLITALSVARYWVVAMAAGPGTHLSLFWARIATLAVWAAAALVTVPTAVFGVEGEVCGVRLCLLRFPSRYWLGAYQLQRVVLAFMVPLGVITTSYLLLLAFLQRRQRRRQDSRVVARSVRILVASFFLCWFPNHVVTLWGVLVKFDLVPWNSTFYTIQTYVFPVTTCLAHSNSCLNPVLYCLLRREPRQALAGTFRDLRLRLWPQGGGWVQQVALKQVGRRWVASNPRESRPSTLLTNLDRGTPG
T3 sequence (Q8TDU9 whole entry): as above
T1 sequence (Q8TDU9 whole entry): as above

With `CC[C@H](C)[C@H](NC(=O)[C@H](Cc1ccc(O)cc1)NC(=O)[C@@H](NC(=O)[C@@H](NC(=O)[C@]1(C)CSSC[C@](C)(NC(=O)[C@H](CC(C)C)NC(=O)CNC(=O)[C@H](CO)NC(C)=O)C(=O)N[C@@H](Cc2ccc(O)cc2)C(=O)N[C@@H]([C@@H](C)CC)C(=O)N[C@@H](CCCNC(=N)N)C(=O)N1)C(C)C)[C@@H](C)CC)C(=O)N[C@@H](CO)C(=O)NCC(=O)NCC(=O)N[C@@H](CO)C(=O)N[C@@H](CCCNC(=N)N)C(=O)N[C@@H](Cc1c[nH]c2ccccc12)C(=O)O` [Disulfide bridge stapled analogue] (Ac-SGL[αMeC]YIR[αMeC]VIYISGGSRW-OH; disulfide 4-8; C-terminus assumed), the Ki on RXFP4 [1] was 46.8 nM. The same molecule showed an EC50 at RXFP4 [2] of 145 nM.
`CC[C@H](C)[C@@H]1NC(=O)[C@H](Cc2ccccc2)NC(=O)[C@H](CCC(=O)O)NC(=O)[C@H](CCCNC(=N)N)NC(=O)CNC(=O)[C@@H](NC(=O)[C@H](CC(C)C)NC(=O)[C@H](CCCNC(=N)N)NC(=O)[C@@H](NC(=O)CNC(=O)[C@H](Cc2ccc(O)cc2)NC(=O)[C@@H]2CCCN2C(=O)[C@H](C)NC(=O)[C@H](C)NC(=O)[C@@H](N)CCCNC(=N)N)C(C)C)CSSC[C@@H]2NC(=O)[C@@H](NC(=O)[C@H](CO)NC(=O)[C@H](CO)NC(=O)[C@H](CO)NC(=O)[C@H](CC(C)C)NC(=O)CNC(=O)[C@H](C)NC(=O)[C@H](CC(C)C)NC(=O)[C@@H](NC(=O)[C@@H](N)CC(=O)O)C(C)C)CSSC[C@H](NC(=O)CNC(=O)[C@H](Cc3c[nH]c4ccccc34)NC(=O)[C@H](CCCCN)NC2=O)C(=O)N[C@@H](CO)C(=O)N[C@@H](CCCCN)C(=O)N[C@@H](CO)C(=O)N[C@@H](CCC(=O)O)C(=O)N[C@@H]([C@@H](C)CC)C(=O)N[C@@H](CO)C(=O)N[C@@H](CO)C(=O)N[C@@H](CC(C)C)C(=O)N[C@H](C(=O)O)CSSC[C@@H](C(=O)NCC(=O)NCC(=O)N[C@@H](CO)C(=O)N[C@@H](CCCNC(=N)N)C(=O)N[C@@H](Cc2c[nH]c3ccccc23)C(=O)O)NC(=O)[C@H]([C@@H](C)O)NC(=O)[C@H](Cc2ccccc2)NC(=O)[C@H]([C@@H](C)CC)NC(=O)[C@H](C(C)C)NC(=O)[C@H](C)NC(=O)[C@H](CCCNC(=N)N)NC1=O` [H3 relaxin]: the “Eu-H3B1-22R pKi” value at RXFP3 [3] was 7.64 ± 0.09 (4)^. For the same molecule, the “cAMP pEC50” value on RXFP3 [4] is 9.08 ± 0.07 (5); at RXFP4 [2] (RXFP4, CHO-K1-RXFP4 cells, 1 μM forskolin, 6 hours, Table 3) it was 8.94 ± 0.13 (4).
For the molecule “SGLEYIRTVIYISGGSRW-OH [Linear B-chain, S-G-L-E-Y-I-R-T-V-I-Y-I-S-G-G-S-R-W-OH]”, the “Eu-R3/I5 pKi” value on RXFP4 [1] (RXFP4, Table 5) is recorded as “No binding (3)”.

B1: INSL5-A13 (two-chain INSL5 analogue, RXFP4 agonist) (ligand)
chain 1: CTDGASMKDLSALC
chain 2: KESVRLCGLEYIRTVIYICASSRW
modifications: disulfide I:1-II:7, I:14-II:19
notes: Disulfide bonds: Cys 1 of A chain to Cys 7 of B chain; Cys 14 of A chain to Cys 19 of B chain; also called Analogue 13; two chain agonist
On to B1, for which, in [5], the “cAMP pEC50” value is 8.1. Further, the figures for the pKi in [6] and in experiment [7] were 7.46 and 8.11, respectively.

B2: αF stapled analogue (INSL5 B-chain, Formula V) (peptide)
peptide: SGL[αMeF]YIR[αMeF]VIYISGGSRW
notes: 18-residue RXFP4 agonist; also called aF stapled analogue; πI5B
For the molecule B2, the “cAMP pEC50” value in [5] turned out to be 7.06. Besides, the figures for the pKi in [6] and in experiment [7] were 6.8 and 7.51, respectively.
For the molecule Ac-SGL[S5]YIR[S5]VIYISGASRW (staple 4-8) [Hydrocarbon stapled analogue (INSL5 B-chain, Formula VI)], in experiment [5], the “cAMP pEC50” value amounted to 6.18. Further, the pKi in [7] was determined as 6.81.

B3: πI5B7-24-GG-S19E (peptide)
peptide: SGL[αMeF]YIR[αMeF]VIYIEGGSRW
notes: 18-residue RXFP4 agonist with two αF residues and glutamic acid at residue 19 (numbering of native INSL5 B chain)
Take B3: the “cAMP pEC50” value in experiment [5] was found to be 7.39. This molecule displayed a pKi in [7] of 8.13.
With SGREFIRAVIFTSR (14 residues) [H3B10-22R13/17EA (Formula XII, truncated form of H3B1-22R)], the binding result in experiment [8] is “no binding”. In experiment [9], the pKi is 6.08.

B4: Linear B-chain (INSL5 B chain analogue, Formula IV) (peptide)
peptide: SGLEYIRTVIYISGGSRW-OH
notes: Residues numbered 7-24 after the native INSL5 B chain; also called control
For the molecule B4, the “cAMP pEC50” value in experiment [5] was below 5. Further, in experiment [6], the binding result is “no binding”.
In the case of SGLKYIRDVIYISGASRW (lactam 4-8) [Lactam Bridge stapled analogue (INSL5 B-chain, Formula VII)], the pKi in experiment [7] was determined as 6.45.
As to Ac-SGL[αMeC]YIR[αMeC]VIYISGGSRW (disulfide 4-8, also called disulfide stapled analogue) [Disulfide bridge stapled analogue (INSL5 B-chain, Formula IX)], in experiment [5], the “cAMP pEC50” value was found to be 6.84. Besides, the pKi in [6] was determined as 7.33.

B5: INSL5-A13: B7-24_G20/21 (two-chain G20/21 analogue) (ligand)
chain 1: CTDGASMKDLSALC
chain 2: CGLEYIRTVIYICGGSRW
notes: GlyGly at positions B20 and B21; also called Formula III
Turning to B5, the “cAMP pEC50” value in experiment [5] was 8.93. The pKi in experiment [7] is 8.64.

B6: INSL5-A13: B7-24 (reduced two chain analogue) (ligand)
chain 1: CTDGASMKDLSALC
chain 2: CGLEYIRTVIYICASSRW
modifications: not fully specified; cysteine pairing not given here
notes: also called Formula II
Consider B6, for which the “cAMP pEC50” value in experiment [5] amounted to 8.08. Also, the pKi in [7] came to 8.06.

B7: Native INSL5 (human insulin-like peptide 5) (ligand)
chain 1: ZDLQTLCCTDGCSMTDLSALC
chain 2: KESVRLCGLEYIRTVIYICASSRW
On to B7, for which the “cAMP pEC50” value in [5] came to 8.34. In addition, the pKi turned out to be 8.43 in experiment [6] and 8.47 in [7].
For SGRFFIRFVIFTSR (14 residues) [H3B10-22R13/17FF (Formula XIII, non-alpha-methylated analogue of Formula X)], the binding result in experiment [8] is reported as “no binding”. For the same molecule, the pKi in experiment [9] worked out at 6.67.
